Our source for the stoichiometry N values is article PMC3196576.

For one experiment, the target named is GroEL CP376 (E. coli) (UniProt P0A6F5). Nature of the experiment: SEC; gel filtration profiles observed during purification (AKTA FPLC, 4°C); data not shown.
The target in experiment [1] is GroEL CP376-RW (E. coli) (UniProt P0A6F5). Described as above.
Experiment [2] shares this target. Put plainly: negative-stain electron microscopy; GroEL alone, 0.25 mg/ml in 50 mM triethanolamine pH 7.5, 20 mM MgCl2, 50 mM KCl; 1% uranyl acetate.

The term stoichiometry N denotes a count of units in the complex or per binding partner. On to “GroEL CP376 (from UniProt P0A6F5 376-548; P0A6F5 2-374)”, for which, in the experiment with GroEL CP376 (E. coli), the stoichiometry N was 14. For the substance “GroEL CP376-RW (from UniProt P0A6F5 376-548; P0A6F5 2-374)”, the stoichiometry N in the experiment with GroEL CP376-RW (E. coli) [1] and with GroEL CP376-RW (E. coli) [2] was 14 in each case.
